For experiment [1], the target named is T1, human CaSR wild type (hCaSR WT) (Homo sapiens, UniProt P41180, E1011Q).
T1 construct: mGlu5 signal peptide (N, cleaved yes); expressed in transfected cells
T1 sequence (P41180 20-1078 E1011Q): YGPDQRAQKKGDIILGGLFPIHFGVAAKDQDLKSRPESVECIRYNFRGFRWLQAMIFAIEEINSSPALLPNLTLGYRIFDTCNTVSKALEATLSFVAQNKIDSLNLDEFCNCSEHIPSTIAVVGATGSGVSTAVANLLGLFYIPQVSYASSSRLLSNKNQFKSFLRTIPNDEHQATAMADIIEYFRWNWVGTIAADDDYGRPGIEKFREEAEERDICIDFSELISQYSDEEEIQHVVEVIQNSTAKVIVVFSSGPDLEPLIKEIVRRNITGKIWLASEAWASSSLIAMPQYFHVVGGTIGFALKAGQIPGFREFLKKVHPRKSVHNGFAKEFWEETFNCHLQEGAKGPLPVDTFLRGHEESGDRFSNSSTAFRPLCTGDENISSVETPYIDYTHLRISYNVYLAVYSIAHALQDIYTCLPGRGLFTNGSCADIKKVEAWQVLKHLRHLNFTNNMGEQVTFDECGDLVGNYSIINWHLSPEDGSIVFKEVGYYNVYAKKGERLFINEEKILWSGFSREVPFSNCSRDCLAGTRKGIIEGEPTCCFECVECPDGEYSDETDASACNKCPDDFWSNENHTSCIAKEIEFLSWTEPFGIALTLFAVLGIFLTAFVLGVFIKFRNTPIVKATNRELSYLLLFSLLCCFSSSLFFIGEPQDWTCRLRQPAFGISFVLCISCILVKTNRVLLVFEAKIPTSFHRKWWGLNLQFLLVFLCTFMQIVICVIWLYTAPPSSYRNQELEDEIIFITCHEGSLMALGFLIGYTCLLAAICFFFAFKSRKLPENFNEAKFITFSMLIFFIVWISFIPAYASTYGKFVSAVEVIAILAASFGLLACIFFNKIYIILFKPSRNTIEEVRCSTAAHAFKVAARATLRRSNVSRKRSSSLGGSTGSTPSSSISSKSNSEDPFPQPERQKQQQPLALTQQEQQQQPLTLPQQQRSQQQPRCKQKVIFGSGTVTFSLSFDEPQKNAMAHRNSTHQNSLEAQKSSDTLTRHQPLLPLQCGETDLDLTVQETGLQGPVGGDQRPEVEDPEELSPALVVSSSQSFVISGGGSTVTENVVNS
Put plainly: Advanced phospho-ERK1/2 assay, HEK293 HA-hCaSR WT cells. The format is cell-based. Particulars: 5 μM nanobody, EC20 Ca2+. Here is the method: Nanobodies were successfully purified by immobilized metal ion affinity chromatography (IMAC) and size exclusion chromatography (SEC) prior to pharmacological characterization (FIG. 1). Each nanobody was initially screened for Gq/11 activity in the Cisbio IP1 accumulation assay as this is the primary signaling pathway of CaSR (Chavez-Abiega et al., 2020). Whole HEK293 HA-hCaSR WT cells were pre-incubated for 30 minutes at 37° C. with a fixed nanobody concentration (5 μM) prior to stimulation with the endogenous ligand Ca^2+. The well characterized positive allosteric modulator (PAM) chemical NPS R-568 and negative allosteric modulator (NAM) chemical NPS 2143 were added as reference compounds. […] No nanobodies with agonist or NAM activity were observed when all nanobodies screened in the absence or in the presence of EC80 Ca^2+, respectively (FIGS. 4A and 4B). […] Except for CaSR Nb5, the same nanobodies acted as PAMs when ERK1/2 phosphorylation was measured in the presence of EC20 Ca^2+ (FIG. 2B). Again, none of the nanobodies elicited an agonist or NAM response (FIGS. 5B and 5C).
Phosphorylation of ERK1/2 at T202 and Y204 was measured with the HTRF® Advanced Phospho-ERK1/2 assay (Cisbio Bioassays, Codolet, France). […] Upon excitation at 340 nm, emission at 615 and 665 nm was measured on an EnVision multimode plate reader (PerkinElmer, Waltham, Mass., USA). […]

For experiment [2], the target named is T2, extracellular Venus flytrap domain of CaSR (Homo sapiens, UniProt P41180).
T2 sequence (P41180 20-610 limits assumed): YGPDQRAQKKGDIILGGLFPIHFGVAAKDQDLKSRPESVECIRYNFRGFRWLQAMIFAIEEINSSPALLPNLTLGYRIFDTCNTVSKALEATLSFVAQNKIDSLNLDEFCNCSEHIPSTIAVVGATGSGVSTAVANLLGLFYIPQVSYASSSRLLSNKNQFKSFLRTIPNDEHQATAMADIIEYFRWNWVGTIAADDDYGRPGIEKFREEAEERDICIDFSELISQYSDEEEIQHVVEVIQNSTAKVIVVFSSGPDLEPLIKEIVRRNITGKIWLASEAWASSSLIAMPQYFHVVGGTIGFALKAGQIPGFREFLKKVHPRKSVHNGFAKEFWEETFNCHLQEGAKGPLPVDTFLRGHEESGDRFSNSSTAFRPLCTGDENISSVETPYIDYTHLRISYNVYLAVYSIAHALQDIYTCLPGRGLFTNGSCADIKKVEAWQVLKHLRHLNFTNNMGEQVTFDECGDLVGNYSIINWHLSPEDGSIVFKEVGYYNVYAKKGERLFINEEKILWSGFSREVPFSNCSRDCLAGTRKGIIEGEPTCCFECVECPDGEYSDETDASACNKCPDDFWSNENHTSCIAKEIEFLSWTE
The experiment in a line: Surface plasmon resonance on isolated purified Venus flytrap domain. The format is binding. Background: SPR reads the build-up and loss of mass on a sensor chip optically.

B1: Nb5: llama-derived CaSR-specific nanobody, weakest PAM, SEQ ID NO:8 (protein)
VHH: QVQLVESGGRLVQDGGSLRLSCAASGLTFSDYSMGWFRQVPGKEREFVAVIRRSNDSTYYADFVKGRFTISRDNAKNTVYLQMNSLQPEDTAVYSCAADRGGVGLTSAQTYAYWGQGTQVTVSS
modifications: CaSR Nb5
As for B1, in experiment [1], the “PAM activity in phospho-ERK1/2 assay” value is reported as “could not be confirmed”.

B2: Nb4: llama-derived CaSR-specific nanobody acting as PAM, SEQ ID NO:5 (protein)
VHH: QVQLVESGGGLVQAGGSLRLSCAASGRTFSTYRMGWFRQGLGKEREFVAAITANGVRTFYTDSVKGRFTISRDNAKNTLYLQMNSLQPDDTAVYLCAARRKGIFTVQQAQDITDWDYWGQGTQVTVSS
modifications: CaSR Nb4
Turning to B2, in experiment [2], the “Binding to isolated Venus flytrap domain (SPR)” value was “binds”. The “Dependence of binding affinity on endogenous ligands (SPR)” value in experiment [2] (Ca2+ and/or L-Trp) is recorded as “synergistically increases upon the presence of both ligands”.

For the origin of these results see US20220411495A1, “POSITIVE ALLOSTERIC MODULATORS OF THE CALCIUM-SENSING RECEPTOR” (VIB VZW, priority 2019, published 2022).
